Assay results: patent US20110124841A1 (published 2011)
MPEG 20 kDa = 20 kDa MPEG from MPEG iodoacetamide

B1: PEGylated SG C-protein (residues 388 to 449 of SEQ ID NO:3) (other)
chain: GTLEHHHHHHGSEAVLNYNHRIVNIEAVSETIDVYDIEVPHTHNFALASGVFVHNSAGGC(MPEG 20 kDa)GP
B2: PEGylated SB C-protein (residues 388 to 453 of SEQ ID NO:1) (other)
chain: GTLEHHHHHHGSPEIEKLSQSDIYWDPIVSITETGVEEVFDLTVPGPRNFVANDIIVHNSGGGC(MPEG 20 kDa)GP

What was measured:
[1] = biological target: SG N-protein (SEQ ID NO:4); assay: cell-based or functional assay
[2] = biological target: SB N-protein (SEQ ID NO:2); assay: cell-based or functional assay

Row | Binder | efficiency of the trans-splicing, from SDS-PAGE protein band intensity; room temperature, molar ratio of C-protein to N-protein approximately 1 (Lane 9) [1] [%] | efficiency of the trans-splicing, from SDS-PAGE protein band intensity; room temperature, molar ratio of C-protein to N-protein approximately 5 (Lane 13) [1] [%] | efficiency of the trans-splicing reaction, from SDS-PAGE protein band intensity; molar ratio approximately 1 [2] [%]
1 | B1 | ~50 | ~90 | 
2 | B2 |  |  | ~30
